Assay results: US20090311257A1 (XOMA TECHNOLOGY, published 2009)
Residue numbers refer to the chain shown, from its start. Where no end group is shown, it is not given here.

T1: CCK2R on the CCK2R overexpressing cell line AGS-TR (UniProt P32239 1-447, limits assumed)
T1 sequence (looked up): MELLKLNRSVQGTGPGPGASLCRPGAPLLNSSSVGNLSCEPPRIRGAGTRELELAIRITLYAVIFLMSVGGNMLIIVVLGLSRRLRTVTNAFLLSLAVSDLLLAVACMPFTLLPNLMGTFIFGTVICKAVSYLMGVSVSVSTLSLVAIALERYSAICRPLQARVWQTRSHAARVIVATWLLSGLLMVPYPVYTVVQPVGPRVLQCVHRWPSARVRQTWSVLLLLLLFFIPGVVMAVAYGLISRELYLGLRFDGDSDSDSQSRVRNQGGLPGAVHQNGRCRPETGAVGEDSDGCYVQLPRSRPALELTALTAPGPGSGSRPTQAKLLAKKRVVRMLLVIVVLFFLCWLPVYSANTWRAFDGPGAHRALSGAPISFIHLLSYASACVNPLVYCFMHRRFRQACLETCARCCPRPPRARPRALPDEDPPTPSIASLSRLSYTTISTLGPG

T2: biotinylated 10 amino acid peptide from the N terminal portion of Gastrin 17 (human, UniProt P01350 76-85, limits assumed, ends and bridges not checked)
T2 construct: domain: 10 amino acid peptide from the N terminal portion of Gastrin 17; Panning target; also called biotinylated peptide; biotinylated peptides
T2 peptide (looked up): QGPWLEEEEE-biotin

B1: human gastrin (h-G17) (ligand, UniProt P01350 76-92, looked up)
peptide: QGPWLEEEEEAYGWMDF
B2: XPA065 (phage display-derived antibody fragment) (antibody, V domains shown)
VH: EVQLVQSGAEVKKPGSSVTVSCKASGGTFDKYAIGWVRQAPGQGLEWMGRIIPTLDLANSAQKFQDRVTITADKFTTTVYMELTNLRPEDTAMYYCTRDPLYNWSGSYWGRGTMVTVSS
VL: QAVLTQPSSLSASPGTSASLTCTLRSGINVGSYRIYWYQQRPGSPPQYLLRYKSDSDKQQGSGVPSRFSGSKDASANAGVLFISGLQSDDEADYYCMIWHNSAWVFGGGTKLTVL
B3: XPA061 (phage display-derived antibody fragment) (antibody, V domains shown)
VH: QVQLVQSGAEVKKPGSSVKVSCKISGGTFSSHAIGWVRQAPGQGLEWIGRIIPSLDLDNSAPKFQDRVTITADKFTNTAYMELRNLRPEDTAFYYCTGDPLYNWTGAHWGRGTMVTVSS
VL: QAVLTQPSSLSASPGASASLTCTLRSDINVGTYRIYWYQQKSGSPPQYLLRYRSDSDKQQGSGVPSRFSGSKDASANAGILLISGLQSEDEADYYCMIWHSSAWVFGGGTKVTVL
B4: XPA067 reformatted whole human IgG (antibody, V domains shown)
VH: B2 VH
VL: B3 VL with D27G, S42P, R53K, V112L
notes: also called parent antibody XPA067; parental a-gastrin mAb
B5: XPA081 (phage display-derived antibody fragment) (antibody, V domains shown)
VH: B2 VH with T54S, A58D, E82K, T84S, M93I, N103Q, R111K, M114L
VL: B3 VL with S42P, R53K, E89G, E91G, V112L
B6: XPA063 (phage display-derived antibody fragment) (antibody, V domains shown)
VH: B2 VH with T54S, A58D, E82K, T84S
VL: B3 VL with D27G, S42P, R53K, V112L
B7: XPA061 reformatted whole human IgG (antibody, V domains shown)
VH: B3 VH
VL: B3 VL
B8: a monoclonal antibody with affinity of about 10^-9 M (anti-gastrin, not named in the sentence) (antibody, V domains shown)
VH: B2 VH
VL: B3 VL with D27G, S42P, R53K, V112L
B9: XPA067 (parental antibody fragment) (antibody, V domains shown)
VH: B2 VH
VL: B3 VL with D27G, S42P, R53K, V112L
notes: also called parental (XPA067)

Key:
[1] = target: T1, CCK2R on the CCK2R overexpressing cell …; experiment: cell-based or functional assay
[2] = target: B1; experiment: cell-based or functional assay
[3] = target: T2, biotinylated 10 amino acid peptide from …; experiment: SPR, measured as described previously (BIACORE, biotinylated peptide on streptavidin chip); reformatted IgG
Procedure: (§1) Affinities of the parental (XPA067) and matured antibody fragments were determined by surface plasmon resonance using a BIACORE® 2000. Affinity constants were calculated from the kinetic rate constants for antibody binding to biotinylated peptide immobilized on a Streptavidin sensor chip.
(§2) A very low density of peptide was immobilized in order to avoid bivalent binding by the antibodies to the sensor chip. Antibodies were tested in triplicate at six concentrations of three-fold serial dilutions. Data were analyzed using BiaEval Software.
Antibody affinity was measured as described previously.

[4] = target: B1; experiment: cell-based or functional assay
[5] = target: B1; experiment: KD measurement of reformatted IgG; method and antigen form not stated in the example; reformatted IgG, Table 2 lead selection
[6] = target: B1; experiment: KD measurement of reformatted IgG; method and antigen form not stated in the example
[7] = target: B1; experiment: summary sentence of the filing's own data; method not given; antibody not named
[8] = target: T2, biotinylated 10 amino acid peptide from …; experiment: SPR (BIACORE 2000), antibody over low-density biotinylated peptide on streptavidin chip; from kinetic rate constants; parental fragment, Table 3 comparator to the matured fragments
Procedure: as §1, §2

Binder	Ca flux neutralization at 2x molar excess [2]	Ca flux neutralization at roughly 100 fold molar excess over gastrin (1 nM) [2]	further results
B1			calcium flux EC50 (AGS-TR cells) [1]: 1 nM
B2	< 20%	~80%	
B3	~70%	~80%	
B4			Kd [3]: ~5 nM; Ca Flux IC50 [4]: 0.76 nM; pERK IC50 (nM) [4]: 0.56 nM; Kd [5]: 3.9 nM
B5	< 20%	~80%	
B6	< 20%	> 70%	
B7			Ca Flux IC50 [4]: 1.34 nM; pERK IC50 (nM) [4]: 0.42 nM; Kd [6]: 9.9 nM
B8			Kd [7]: ~1 nM
B9	< 20%	~80%	Kd [8]: ~5 nM
